Experimental data: patent publication US20030027252A1 (TULARIK, published 2003)
Where no end group is shown, it is not given here.

What was measured:
[1] = molecular target: T1, Human TGR342 (human, UniProt Q969V1 1-340); experiment: [125I]-MCH binding to membranes of HEK293 cells transiently transfected with pEF6/V5-TGR342; specific binding = total minus mock-transfected membranes
T1 construct: Full-length cDNA in pEF6-V5 (Invitrogen), transiently expressed in HEK293 or CHO cells; also called MCHR2; MCHR-2
T1 sequence (Q969V1 whole entry): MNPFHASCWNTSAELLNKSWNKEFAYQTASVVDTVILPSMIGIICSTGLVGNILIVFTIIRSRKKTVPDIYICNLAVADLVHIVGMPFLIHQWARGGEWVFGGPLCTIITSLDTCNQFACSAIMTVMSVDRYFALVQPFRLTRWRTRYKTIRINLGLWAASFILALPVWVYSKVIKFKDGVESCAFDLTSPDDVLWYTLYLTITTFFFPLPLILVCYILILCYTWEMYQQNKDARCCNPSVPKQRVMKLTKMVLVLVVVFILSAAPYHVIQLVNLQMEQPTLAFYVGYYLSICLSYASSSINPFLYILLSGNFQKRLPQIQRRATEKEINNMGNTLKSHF

[2] = molecular target: T1, Human TGR342; experiment: cell-based or functional assay

Kd [1] [nM] | EC50, aequorin luminescence assay (intracellular calcium mobilization), transfected HEK293 cells [2] [nM] | Binder
9.6 | – | DFDMLRCMLGRVYRPCWQV (peptide, UniProt P20382 147-165, looked up, ends and bridges not checked; also: 125I label, labelled residue not given here, mature) [[^125I]-MCH]
– | 2 | DFDMLRCMLGRVYRPCWQV (peptide, UniProt P20382 147-165, looked up, ends and bridges not checked; cysteine pairing not given here) [melanin-concentrating hormone (MCH)]
